# Publication PMC11421798, “Subfunctionalization of NRC3 altered the genetic structure of the Nicotiana NRC network” (PLOS Genetics, 2024)
# Where a chain is given by its changes, count along the chain named. Names and notes keep the numbering of the source.
# B1: N^L21ENN (NbNRC3c with L21E) (natural protein, N. benthamiana, UniProt A0A5J6DCA3 1-888, looked up)
# chain: MADVAADVAVKFLVENLMQLEIDNADLIIGIKGEVENLLQDLNDFNAFLKQAAKSRRDNEVLKSLVKKIRKVVNDAEDSIDKFVIEAKRHDDKNKFAQWFHLTHVARAKGVADEIKTIRERVKEIRQNDAYGLQAITSYDNFNQGAQERKVPVVEEDDVVGFDDEAKTVIDRLIGGSDYVVPVVGMPGLGKTTLAYKIFKDSTVEYEFFNRIWVYVSQSFNRREIFLNIISKFTRNTKQYHDTPEEELANEIKELLGKGGKYLVVLDDVWTREAWDRIKIAFPNNNKRNRVLMTTRQNNVAKSCNDKPHDLKFLTENESWELLEKRVFHKEKCPFELELPGKSIAKKCRGLPLAIVVIAGALIGKGKTTREWELVADSVGEHLINRDPENCKKLVQMSYDRLPYDLKACFLYCGAFPGGSEISAQKLICLWIAEGFIQYQGPLTLEDIAEDHLNDLVNRNLVMVMKRSSSGQIKTCRVHDMLHEFCRHEAMMEENLFQEIKRGQEHSFPEKQELASYRRLCIHSSVSEFLSTKPFAEHVRSFLCFASKKFEMPLGEIPAIPRAFPLLRVLDAESIKFSRFSREFFKLFHLRYIAFSTDSIMTIPTNIGNLWNVQTLIIETQQGTLDIKADIWNMTRLRHVCINASATLPSPKRPKSSKDNLVNRCLQTLSTIAPECCTAEVFTRTPNLKKLGVRGKIDALLETSKDGSSSGLFSNIGKLDCLEKLKLVNDTRQSRKQLHLPPAYIFPQKLKKLTLIDTWFEWKDMSILGLLEYLEVLKLKENAFRGQSWEPEDSGFPRLQVLWIERTDLSSWKASSGNFPRLKCLVLIACDNLKELPAELADVENLQLMELQSTSVSAAKSARAILKKKQQKVGSGFKLSVFPPDLGL
# notes: NRC3 (NbNRC3c) of Nicotiana benthamiana with L21E in the CC domain; L21E is named only in the methods of the BN-PAGE; the results call this protein NNN; also called NNN (in the BN-PAGE); source: nrc2/3/4_KO N. benthamiana leaves, agroinfiltrated, in digitonin extract
# B2: N^L21… (… with L21E) (natural protein, N. benthamiana, UniProt A0A5J6DCA3 1-888, looked up)
# chain: B1 chain with S202P, T203K, N221K, I642T, C824H, N832K
# notes: L21E is named only in the methods of the BN-PAGE; source: nrc2/3/4_KO N. benthamiana leaves, agroinfiltrated, in digitonin extract
# Molecular target: the molecule itself
# Assay: native gel or EMSA; BN-PAGE (NativePAGE 4-16% Bis-Tris) of 1% digitonin extracts of nrc2/3/4_KO N. benthamiana leaves at 2 dpi; NRC3 variant co-expressed with Rpi-blb2, without AVRblb2
row,Protein,stoichiometry N
1,B1,2
2,B2,2
